Reference: paper doi:10.1101/2023.06.09.544317

Molecular target: tRNA pseudouridine synthase from archaea (Q8U2C1) (P. furiosus)
Test: mass photometry

stoichiometry N: 2
Substance: tRNA pseudouridine synthase from archaea (Q8U2C1) (enzyme)
